Results on one substance are retold here after US20240010736A1.

The test has as its target human thrombopoietin receptor (hTPOR, genetic name MPL), on cells (human) (UniProt P40238). Put plainly: cell-based or functional assay.

“recombinant human thrombopoietin (rhTPO) (from UniProt P40225 22-353) (ligand)” yielded an EC50 of cell proliferation of BaF3/MPL cells of 1.3 ng/mL.
